Data from US20220056087A1 (GLIKNIK, published 2022).
Each block holds one binder with its values, some of them ahead of it.

B2: mouse IgG2a Fc homodimers (other, UniProt P01863 98-330, looked up)
chain: EPRGPTIKPCPPCKCPAPNLLGGPSVFIFPPKIKDVLMISLSPIVTCVVVDVSEDDPDVQISWFVNNVEVHTAQTQTHREDYNSTLRVVSALPIQHQDWMSGKEFKCKVNNKDLPAPIERTISKPKGSVRAPQVYVLPPPEEEMTKKQVTLTCMVTDFMPEDIYVEWTNNGKTELNYKNTEPVLDSDGSYFMYSKLRVEKKNWVERNSYSCSVVHEGLHNHHTTKSFSRTPGK
notes: domain: Fc; also called IgG2a controls; IgG2a Fc control
B8: mouse FcγRIIB (immobilized on CM4 chip) (receptor, UniProt P08101 30-207, looked up)
chain: THDLPKAVVKLEPPWIQVLKEDTVTLTCEGTHNPGNSSTQWFHNGRSIRSQVQASYTFKATVNDSGEYRCQMEQTRLSDPVDLGVISDWLLLQTPQLVFLEGETITLRCHSWRNKLLNRISFFHNEKSVRYHHYSSNFSIPKANHSHSGDYYCKGSLGRTLHQSKPVTITVQGPKSSR
notes: also called mouse FcγR2b
B11: mouse FcγRIIIA (immobilized on CM4 chip) (receptor, UniProt P08508 31-215, looked up)
chain: ALPKAVVKLDPPWIQVLKEDMVTLMCEGTHNPGNSSTQWFHNGRSIRSQVQASYTFKATVNDSGEYRCQMEQTRLSDPVDLGVISDWLLLQTPQRVFLEGETITLRCHSWRNKLLNRISFFHNEKSVRYHHYKSNFSIPKANHSHSGDYYCKGSLGSTQHQSKPVTITVQDPATTSSISLVWYHT
notes: also called mouse FcγR3A

Key:
[1] = molecular target: B8; experiment: SPR (Biacore), receptor amine-coupled to a CM4 chip, analyte 500 nM to 1.9 nM; panel 'Mse FcR2B'
Description: (§1) FcγRIIIA, FcγRIIB and SIGN-R1 receptors were immobilized to a CM4 chip using amine immobilization to 560, 500, and 1000RU, respectively to compensate for protein size.
(§2) Regeneration was achieved by a 10 sec injection of 1M MgCl at 100 ul/min, followed by a brief wash with running buffer. KDs were calculated using T100 evaluation software.

[2] = molecular target: T1, mouse SIGN-R1 (immobilized on CM4 chip) (mouse, UniProt Q8CJ91 74-325, limits assumed); experiment: SPR (Biacore), receptor amine-coupled to a CM4 chip, analyte 500 nM to 1.9 nM; panel 'Mse SIGN-R1'
T1 sequence (looked up): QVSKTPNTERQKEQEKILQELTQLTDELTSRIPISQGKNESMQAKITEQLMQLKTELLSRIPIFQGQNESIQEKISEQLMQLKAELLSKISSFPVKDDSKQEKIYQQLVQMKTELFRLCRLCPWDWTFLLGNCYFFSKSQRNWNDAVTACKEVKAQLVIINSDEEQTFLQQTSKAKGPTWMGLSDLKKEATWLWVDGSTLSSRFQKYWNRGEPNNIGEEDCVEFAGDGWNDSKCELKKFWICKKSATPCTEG
Description: as §1, §2

[3] = molecular target: T1, mouse SIGN-R1 (immobilized on CM4 chip); experiment: SPR (Biacore) as in Example 4, SIGN-R1 on the chip; the sheet itself says the value cannot be accurately calculated; traces flat
Description: as §1, §2
(§3) M045F was first gel fractionated using an AktaXpress protein purification system and a GE HiLoad 16/60 Superdex 200 prep grade column.

[4] = molecular target: T1, mouse SIGN-R1 (immobilized on CM4 chip); experiment: SPR (Biacore) as in Example 4, SIGN-R1 on the chip
Description: as §1, §2, §3

[5] = molecular target: B11; experiment: SPR (Biacore), receptor amine-coupled to a CM4 chip, analyte 500 nM to 1.9 nM; panel 'Mse FcR3A'
Description: as §1, §2

[6] = molecular target: T1, mouse SIGN-R1 (immobilized on CM4 chip); experiment: SPR (Biacore) as in Example 4, SIGN-R1 on the chip; the sheet itself says the value cannot be accurately calculated; traces nearly flat
Description: as §1, §2, §3

[7] = molecular target: B2; experiment: SPR (Biacore), receptor amine-coupled to a CM4 chip; panel 'Mse FcR2B'
Description: as §1, §2

G001 (native IgG1 Fc) = molecular target: T2, G001 (native IgG1 Fc) (human, UniProt P01857-1 99-330 = IgG part); experiment: BLI (Octet 96 Red), receptor on sensor, G001 in solution
T2 construct: domain: Fc; also called IgG1 Fc control; homodimeric monomer of IgG1 Fc
Description: For binding analysis of mouse protein, His-tagged mouse FcγRII (R&D system cat #1460-CD) and FcγRIII R&D system cat #1960) were separately loaded on anti-penta-His Biosensors (ForteBio cat #18-5077) at 10 ug/ml in 1× kinetic analysis buffer (ForteBio cat #18-5032). For binding analysis of human protein, His-tagged human FcγRIIb (R&D system cat #1875-CD) and FcγRIIIa R&D system cat #4325-Fc) were separately loaded on anti-penta-His Biosensors (ForteBio cat #18-5077) at 10 ug/ml in 1× kinetic analysis buffer (ForteBio cat #18-5032). Following sensor tip loading protein association was measured by transfer of tips to preparations of either monomeric fraction (over a range of concentrations) or the multimeric fractions (over a range of concentrations) in 1× kinetics analysis buffer and dissociation was measured by transfer of sensor tips to 1× kinetics buffer. Analysis was as described (Data Analysis User Guide 6.4ForteBio). Analysis was standardized as described above assigning a MW of 50 kD to homodimers and 150 kD to all other protein preparations.

[8] = molecular target: B2; experiment: SPR (Biacore), receptor amine-coupled to a CM4 chip; panel 'Mse FcR3A'
Description: as §1, §2

B1: M019 stradomer (Fc fusion)
chain: ERKCCVECPPCPEPRGPTIKPCPPCKCPAPNLLGGPSVFIFPPKIKDVLMISLSPIVTCVVVDVSEDDPDVQISWFVNNVEVHTAQTQTHREDYNSTLRVVSALPIQHQDWMSGKEFKCKVNNKDLPAPIERTISKPKGSVRAPQVYVLPPPEEEMTKKQVTLTCMVTDFMPEDIYVEWTNNGKTELNYKNTEPVLDSDGSYFMYSKLRVEKKNWVERNSYSCSVVHEGLHNHHTTKSFSRTPGK
notes: Murine counterpart of G019 (N-terminal IgG2 hinge multimerization domain); The entry may include a leader
- Kd [1]: 45.3 nM
- binding result [2]: binds

Binder: B2
- Kd [3]: 132 nM

B3: M028 stradomer (Fc fusion)
chain: SIKQIEDKIEEILSKIYHIENEIARIKKLIGERGEPRGPTIKPCPPCKCPAPNLLGGPSVFIFPPKIKDVLMISLSPIVTCVVVDVSEDDPDVQISWFVNNVEVHTAQTQTHREDYNSTLRVVSALPIQHQDWMSGKEFKCKVNNKDLPAPIERTISKPKGSVRAPQVYVLPPPEEEMTKKQVTLTCMVTDFMPEDIYVEWTNNGKTELNYKNTEPVLDSDGSYFMYSKLRVEKKNWVERNSYSCSVVHEGLHNHHTTKSFSRTPGK
notes: Murine counterpart of G028 (N-terminal isoleucine zipper); The entry may include a leader
- Kd [4]: 638 nM
- Kd [5]: 18.7 nM

B6: M045 F2 (Fc fusion)
stradomer monomer: DEPRGPTIKPCPPCKCPAPNLLGGPSVFIFPPKIKDVLMISLSPIVTCVVVDVSEDDPDVQISWFVNNVEVHTAQTQTHREDYNSTLRVVSALPIQHQDWMSGKEFKCKVNNKDLPAPIERTISKPKGSVRAPQVYVLPPPEEEMTKKQVTLTCMVTDFMPEDIYVEWTNNGKTELNYKNTEPVLDSDGSYFMYSKLRVEKKNWVERNSYSCSVVHEGLHNHHTTKSFSRTPGKERKCCVECPPCP
notes: also called lower molecular weight multimer fraction of M045
- Kd [4]: 91.2 nM

B7: M045 F1 (highest molecular weight multimer fraction of M045c) (Fc fusion)
chain: DEPRGPTIKPCPPCKCPAPNLLGGPSVFIFPPKIKDVLMISLSPIVTCVVVDVSEDDPDVQISWFVNNVEVHTAQTQTHREDYNSTLRVVSALPIQHQDWMSGKEFKCKVNNKDLPAPIERTISKPKGSVRAPQVYVLPPPEEEMTKKQVTLTCMVTDFMPEDIYVEWTNNGKTELNYKNTEPVLDSDGSYFMYSKLRVEKKNWVERNSYSCSVVHEGLHNHHTTKSFSRTPGKERKCCVECPPCP
notes: The entry may include a leader; also called Fraction 1; M045 Fraction 1
- Kd [4]: 90.9 nM

Binder: B8
- Kd [7]: 642 nM

Binder: B11
- Kd [8]: 80.1 nM

Next, values leading:

- Kd [4]: 334 nM
B4: M045c stradomer (Fc fusion)
chain: DEPRGPTIKPCPPCKCPAPNLLGGPSVFIFPPKIKDVLMISLSPIVTCVVVDVSEDDPDVQISWFVNNVEVHTAQTQTHREDYNSTLRVVSALPIQHQDWMSGKEFKCKVNNKDLPAPIERTISKPKGSVRAPQVYVLPPPEEEMTKKQVTLTCMVTDFMPEDIYVEWTNNGKTELNYKNTEPVLDSDGSYFMYSKLRVEKKNWVERNSYSCSVVHEGLHNHHTTKSFSRTPGKERKCCVECPPCP
notes: Murine counterpart of G045c; The entry may include a leader that is cleaved from the secreted protein; Mix of homodimers and multimers

- Kd [6]: 11000 nM
B5: M045 F3 (Fc fusion)
stradomer monomer: DEPRGPTIKPCPPCKCPAPNLLGGPSVFIFPPKIKDVLMISLSPIVTCVVVDVSEDDPDVQISWFVNNVEVHTAQTQTHREDYNSTLRVVSALPIQHQDWMSGKEFKCKVNNKDLPAPIERTISKPKGSVRAPQVYVLPPPEEEMTKKQVTLTCMVTDFMPEDIYVEWTNNGKTELNYKNTEPVLDSDGSYFMYSKLRVEKKNWVERNSYSCSVVHEGLHNHHTTKSFSRTPGKERKCCVECPPCP
notes: also called homodimer fraction of M045

- Kd (G001 (native IgG1 Fc)): 1510 nM
B9: His-tagged mouse FcγRII (R&D system cat #1460-CD) (receptor, UniProt P08101 30-207, looked up)
chain: THDLPKAVVKLEPPWIQVLKEDTVTLTCEGTHNPGNSSTQWFHNGRSIRSQVQASYTFKATVNDSGEYRCQMEQTRLSDPVDLGVISDWLLLQTPQLVFLEGETITLRCHSWRNKLLNRISFFHNEKSVRYHHYSSNFSIPKANHSHSGDYYCKGSLGRTLHQSKPVTITVQGPKSSR
notes: Bought protein; also called Mouse FcγRIIb; Mouse FcyRII

- Kd (G001 (native IgG1 Fc)): 1310 nM
B10: His-tagged human FcγRIIb (R&D system cat #1875-CD) (receptor, UniProt P31994 46-217, looked up)
chain: APPKAVLKLEPQWINVLQEDSVTLTCRGTHSPESDSIQWFHNGNLIPTHTQPSYRFKANNNDSGEYTCQTGQTSLSDPVHLTVLSEWLVLQTPHLEFQEGETIVLRCHSWKDKPLVKVTFFQNGKSKKFSRSDPNFSIPQANHSHSGDYHCTGNIGYTLYSSKPVTITVQAP
notes: Bought protein

- Kd (G001 (native IgG1 Fc)): 4180 nM
B12: His-tagged mouse FcγRIII (R&D system cat #1960) (receptor, UniProt P08508 31-215, looked up)
chain: ALPKAVVKLDPPWIQVLKEDMVTLMCEGTHNPGNSSTQWFHNGRSIRSQVQASYTFKATVNDSGEYRCQMEQTRLSDPVDLGVISDWLLLQTPQRVFLEGETITLRCHSWRNKLLNRISFFHNEKSVRYHHYKSNFSIPKANHSHSGDYYCKGSLGSTQHQSKPVTITVQDPATTSSISLVWYHT
notes: Bought protein; also called Mouse FcyRIII

- kon (G001 (native IgG1 Fc)): 124000 M⁻¹ s⁻¹
B13: Cynomolgus FcγRIIIa (receptor, UniProt Q8SPW2 17-208, looked up)
chain: GMRAEDLPKAVVFLEPQWYRVLEKDRVTLKCQGAYSPEDNSTRWFHNESLISSQTSSYFIAAARVNNSGEYRCQTSLSTLSDPVQLEVHIGWLLLQAPRWVFKEEESIHLRCHSWKNTLLHKVTYLQNGKGRKYFHQNSDFYIPKATLKDSGSYFCRGLIGSKNVSSETVNITITQDLAVSSISSFFPPGYQ

- Kd (G001 (native IgG1 Fc)): 2040 nM
B14: Cynomolgus FcγRIIb (receptor)
chain: TPAAPPKAVLKLEPPWINVLREDSVTLTCGGAHSPDSDSTQWFHNGNLIPTHTQPSYRFKANNNDSGEYRCQTGRTSLSDPVHLTVLSEWLALQTPHLEFREGETIMLRCHSWKDKPLIKVTFFQNGKSKKFSHMDPNFSIPQANHSHSGDYHCTGNIGYTPYSSKPVTITVQVP
